Experiments:
[1] = biological target: T1, recombinant monomeric gp120 JR-CSF (HIV-1 JR-CSF, UniProt P20871 32-503); experiment: mAb Specificity column, ELISA screen
T1 construct: domain: gp120; also called JR-CSF gp120; JR-CSFgp120
Description: In anti-gp120 ELISA, recombinant gp120 (0.5 μg/ml) was captured on 384 well ELISA plates pre-coated (at 4° C. overnight) with goat anti-gp120 (5 μg/ml) in BSA-containing assay buffer (PBS with 0.05% Tween-20) for 1 hr at room temperature. After excess gp120 was removed and plates were washed thrice with assay buffer, B cell culture supernatants diluted 5-fold was added to incubate for 1 hr at room temperature. Following three washes in assay buffer, secondary HRP-conjugated goat anti-human Ig Fc in BSA-containing assay buffer was added and incubated for about 1 hr at room temperature. 3,3′,5,5′-tetramethylbenzidine (TMB) substrate was used to develop the colorimetric readouts after washing the ELISA plates 3 times.

[2] = biological target: ADA Env on pseudovirus (HIV-1 ADA); experiment: cell-based or functional assay
[3] = biological target: 92RW020 Env on pseudovirus (HIV-1 92RW020); experiment: cell-based or functional assay
[4] = biological target: HIV-1 JR-CSF Env on pseudovirus (HIV-1 JR-CSF, UniProt P20871 32-848); experiment: cell-based or functional assay
[5] = biological target: JR-FL(E168K) Env on pseudovirus (HIV-1 JR-FL); experiment: cell-based or functional assay

Binder | binding result [1] | IC50 (ug/ml), pseudovirus neutralization, TZM-bl assay [2] [µg/mL] | IC50 (ug/ml), pseudovirus neutralization, TZM-bl assay [3] [µg/mL] | IC50 (ug/ml), pseudovirus neutralization, TZM-bl assay [4] [µg/mL] | IC50 (ug/ml), pseudovirus neutralization, TZM-bl assay [5] [µg/mL]
1456_P20 (PG20) (antibody, human IgG1, kappa, V domains shown) VH: QVRLVQSGPEVKKPGSSVTVSCQASGGTFSSYAFTWVRQAPGQGLEWLGMVTPIFGEAKYSQRFEGRVTITADESTSTTSIELRGLTSEDTAIYYCARDRRAVPIATDNWLDPWGQGTLVTVSS VL: DIQLTQSPSSLSASVGDRVSITCRASQTINNYLNWYQQTPGKAPKLLIYGASNLQNGVPSRFSGSGSGTDFTLTISSLQPEDFATYYCQQSFSTPRTFGQGTRLDIKR | binds |  |  |  | 
1460_G14 (PGG14) (antibody, human IgG1, kappa, V domains shown) VH: QVLLVQSGTEVKKPGSSVKVSCQASGGAFSSYAFSWVRQAPGQGLEWMGMITPVFGETKYAPRFQGRLTLTAEESLSTTYMELRSLTSDDTAFYYCTRDRRVVPMATDNWLDPWGQGTLVTVSS VL: DIQLTQSPSSLSASVGDRVTVTCRASQTIHTYLNWYQQIPGKAPKLLIYGASTLQSGVPSRFSGSGSGTDFTLTINSLQPEDFATYYCQQSYSTPRTFGQGTRLDIKR | binds |  |  |  | 
1496_C09 (PG9) (TCN-109) (antibody, V domains shown) VH: QRLVESGGGVVQPGSSLRLSCAASGFDFSRQGMHWVRQAPGQGLEWVAFIKYDGSEKYHADSVWGRLSISRDNSKDTLYLQMNSLRVEDTATYFCVREAGGPDYRNGYNYYDFYDGYYNYHYMDVWGKGTTVTVSS VL: QSALTQPASVSGSPGQSITISCNGTSNDVGGYESVSWYQQHPGKAPKVVIYDVSKRPSGVSNRFSGSKSGNTASLTISGLQAEDEGDYYCKSLTSTRRRVFGTGTKLTVLG |  | 0.2 | 0.1 |  | 
1443_C16 (PG16) (TCN-116) (antibody, V domains shown) VH: QEQLVESGGGVVQPGGSLRLSCLASGFTFHKYGMHWVRQAPGKGLEWVALISDDGMRKYHSDSMWGRVTISRDNSKNTLYLQFSSLKVEDTAMFFCAREAGGPIWHDDVKYYDFNDGYYNYHYMDVWGKGTTVTVSS VL: QSALTQPASVSGSPGQTITISCNGTSSDVGGFDSVSWYQQSPGKAPKVMVFDVSHRPSGISNRFSGSKSGNTASLTISGLHIEDEGDYFCSSLTDRSHRIFGGGTKVTVLG |  | 0.004 | 0.09 | 0.001 | 0.006
1495_C14 (PGC14) (antibody, human IgG1, lambda, V domains shown) VH: DGHLVQSGVEVKKTGATVKISCKVSGYSFIDYYLHWVQRAPGKGLEWVGLIDPENGEARYAEKFQGRVTIIADTSIDTGYMEMRSLKSEDTAVYFCAAGAVGADSGSWFDPWGQGTLVTVSS VL: SYELTQPPSVSVSPGQTASITCSGSKLGDKYVSWYQLRPGQSPILVMYENDRRPSGIPERFSGSNSGDTATLTISGTQALDEADFYCQAWETTTTTFVFFGGGTQLTVLG | binds |  |  |  | 
